Here are results for five variants from IntAct's records for PubMed 20062059.

The chains are these.
B1: GTP-binding protein RHO1 (Saccharomyces cerevisiae), P06780 (parent)
chain: MSQQVGNSIRRKLVIVGDGACGKTCLLIVFSKGQFPEVYVPTVFENYVADVEVDGRRVELALWDTAGQEDYDRLRPLSYPDSNVVLICFSIDLPDSLENVQEKWIAEVLHFCQGVPIILVGCKVDLRNDPQTIEQLRQEGQQPVTSQEGQSVADQIGATGYYECSAKTGYGVREVFEAATRASLMGKSKTNGKAKKNTTEKKKKKCVLL

In this test the parent is B1. The following applies: with sec3_yeast SEC3, P33332.
Chain of sec3_yeast SEC3, P33332 (P33332 whole entry): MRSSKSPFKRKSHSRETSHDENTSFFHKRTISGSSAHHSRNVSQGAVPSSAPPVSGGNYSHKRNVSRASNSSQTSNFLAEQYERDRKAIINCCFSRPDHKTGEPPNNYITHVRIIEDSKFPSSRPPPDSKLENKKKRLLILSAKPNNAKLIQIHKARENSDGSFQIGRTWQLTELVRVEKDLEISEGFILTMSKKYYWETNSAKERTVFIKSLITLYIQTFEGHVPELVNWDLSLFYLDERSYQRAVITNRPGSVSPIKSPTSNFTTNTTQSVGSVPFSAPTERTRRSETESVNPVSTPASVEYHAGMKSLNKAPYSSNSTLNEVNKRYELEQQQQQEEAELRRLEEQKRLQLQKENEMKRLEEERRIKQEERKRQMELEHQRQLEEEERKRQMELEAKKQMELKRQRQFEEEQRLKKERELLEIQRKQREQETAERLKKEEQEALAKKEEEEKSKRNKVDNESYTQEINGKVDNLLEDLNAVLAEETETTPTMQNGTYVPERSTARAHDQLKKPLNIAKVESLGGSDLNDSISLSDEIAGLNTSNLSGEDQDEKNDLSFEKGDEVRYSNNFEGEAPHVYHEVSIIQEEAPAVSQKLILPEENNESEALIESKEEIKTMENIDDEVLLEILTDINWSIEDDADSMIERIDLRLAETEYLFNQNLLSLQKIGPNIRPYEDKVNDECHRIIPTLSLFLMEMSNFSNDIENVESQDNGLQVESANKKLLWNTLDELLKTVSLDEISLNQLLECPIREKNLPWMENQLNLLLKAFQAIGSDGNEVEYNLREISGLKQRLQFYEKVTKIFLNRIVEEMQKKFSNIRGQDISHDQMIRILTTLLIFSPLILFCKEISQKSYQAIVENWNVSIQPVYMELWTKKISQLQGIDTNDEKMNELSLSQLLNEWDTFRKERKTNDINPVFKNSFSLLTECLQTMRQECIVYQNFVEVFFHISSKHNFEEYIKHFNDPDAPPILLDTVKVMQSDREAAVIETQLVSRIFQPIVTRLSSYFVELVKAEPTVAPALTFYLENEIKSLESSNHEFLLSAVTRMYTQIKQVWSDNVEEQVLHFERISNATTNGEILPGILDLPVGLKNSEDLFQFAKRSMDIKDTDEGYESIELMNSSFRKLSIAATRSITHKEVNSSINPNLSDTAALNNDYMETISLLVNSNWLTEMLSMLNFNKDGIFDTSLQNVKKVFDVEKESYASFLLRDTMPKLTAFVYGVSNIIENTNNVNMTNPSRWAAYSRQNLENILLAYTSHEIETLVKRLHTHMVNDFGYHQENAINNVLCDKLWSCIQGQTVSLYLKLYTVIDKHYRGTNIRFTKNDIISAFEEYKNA
Turning to V43A, the “effect of a mutation on the interaction” value was “disrupting interaction”.

For Q68A, the “effect of a mutation on the interaction” value is “disrupting interaction”.

Y71A: the “effect of a mutation on the interaction” value is recorded as “disrupting interaction”.

With F44A, the “effect of a mutation on the interaction” value is reported as “disrupting interaction”.

As to R73A, the “effect of a mutation on the interaction” value is “disrupting interaction”.
